Laboratory results taken from IntAct's records for PubMed 27820671.

B1: LIM/homeobox protein Lhx4 (Homo sapiens), Q969G2 (parent)
chain: MMQSATVPAEGAVKGLPEMLGVPMQQIPQCAGCNQHILDKFILKVLDRHWHSSCLKCADCQMQLADRCFSRAGSVYCKEDFFKRFGTKCTACQQGIPPTQVVRKAQDFVYHLHCFACIICNRQLATGDEFYLMEDGRLVCKEDYETAKQNDDSEAGAKRPRTTITAKQLETLKNAYKNSPKPARHVREQLSSETGLDMRVVQVWFQNRRAKEKRLKKDAGRHRWGQFYKSVKRSRGSSKQEKESSAEDCGVSDSELSFREDQILSELGHTNRIYGNVGDVTGGQLMNGSFSMDGTGQSYQDLRDGSPYGIPQSPSSISSLPSHAPLLNGLDYTVDSNLGIIAHAGQGVSQTLRAMAGGPTSDISTGSSVGYPDFPTSPGSWLDEMDHPPF
partner: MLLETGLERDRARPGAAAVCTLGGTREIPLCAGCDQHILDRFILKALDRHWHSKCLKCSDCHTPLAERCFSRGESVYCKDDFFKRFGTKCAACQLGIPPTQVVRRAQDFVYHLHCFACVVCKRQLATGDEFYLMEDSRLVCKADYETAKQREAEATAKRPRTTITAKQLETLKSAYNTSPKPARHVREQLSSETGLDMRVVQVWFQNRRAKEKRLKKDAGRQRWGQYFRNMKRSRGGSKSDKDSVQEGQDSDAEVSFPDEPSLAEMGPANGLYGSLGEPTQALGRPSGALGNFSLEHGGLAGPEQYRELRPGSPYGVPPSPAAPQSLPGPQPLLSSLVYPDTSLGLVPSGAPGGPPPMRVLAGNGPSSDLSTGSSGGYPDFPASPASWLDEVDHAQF
B2: LIM/homeobox protein Lhx4 (Homo sapiens), Q969G2 (parent)
chain: B1 chain
partner: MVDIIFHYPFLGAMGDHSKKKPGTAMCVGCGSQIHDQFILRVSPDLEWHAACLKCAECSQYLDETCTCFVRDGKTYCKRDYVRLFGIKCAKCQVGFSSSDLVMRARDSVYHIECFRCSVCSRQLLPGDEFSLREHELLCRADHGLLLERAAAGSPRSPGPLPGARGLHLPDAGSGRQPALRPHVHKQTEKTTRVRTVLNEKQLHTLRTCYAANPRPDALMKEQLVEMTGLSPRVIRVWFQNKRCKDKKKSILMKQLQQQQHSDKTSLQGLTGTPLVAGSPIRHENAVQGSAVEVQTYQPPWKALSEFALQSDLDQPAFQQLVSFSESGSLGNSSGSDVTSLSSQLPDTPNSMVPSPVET

Variants of: B1
Details: with lhx3_human LHX3, Q9UBR4

effect of a mutation on the interaction | Variant
decreasing interaction strength | MMQSATVPAEGAVKGLPEMLGVPMQQIPQCAGCNQHILDKFILKVLDRHWHSSCLKAADAQMQLADRCFSRAGSVYCKEDFFKRFGTKCTACQQGIPPTQVVRKAQDFVYHLHCFACIICNRQLATGDEFYLMEDGRLVCKEDYETAKQNDDSEAGAKRPRTTITAKQLETLKNAYKNSPKPARHVREQLSSETGLDMRVVQVWFQNRRAKEKRLKKDAGRHRWGQFYKSVKRSRGSSKQEKESSAEDCGVSDSELSFREDQILSELGHTNRIYGNVGDVTGGQLMNGSFSMDGTGQSYQDLRDGSPYGIPQSPSSISSLPSHAPLLNGLDYTVDSNLGIIAHAGQGVSQTLRAMAGGPTSDISTGSSVGYPDFPTSPGSWLDEMDHPPF [C57A;C60A]
with no effect | MMQSATVPAEGAVKGLPEMLGVPMQQIPQCAGCNQHILDKFILKVLDRHWHSSCLKCADCQMQLVDRCFSRAGSVYCKEDFFKRFGTKCTACQQGIPPTQVVRKAQDFVYHLHCFACIICNRQLATGDEFYLMEDGRLVCKEDYETAKQNDDSEAGAKRPRTTITAKQLETLKNAYKNSPKPARHVREQLSSETGLDMRVVQVWFQNRRAKEKRLKKDAGRHRWGQFYKSVKRSRGSSKQEKESSAEDCGVSDSELSFREDQILSELGHTNRIYGNVGDVTGGQLMNGSFSMDGTGQSYQDLRDGSPYGIPQSPSSISSLPSHAPLLNGLDYTVDSNLGIIAHAGQGVSQTLRAMAGGPTSDISTGSSVGYPDFPTSPGSWLDEMDHPPF [A65V]

Variants of: B2
Details: with isl2_human ISL2, Q96A47

effect of a mutation on the interaction | Variant
with no effect | MMQSATVPAEGAVKGLPEMLGVPMQQIPQCAGCNQHILDKFILKVLDRHWHSSCLKCADCQMQLVDRCFSRAGSVYCKEDFFKRFGTKCTACQQGIPPTQVVRKAQDFVYHLHCFACIICNRQLATGDEFYLMEDGRLVCKEDYETAKQNDDSEAGAKRPRTTITAKQLETLKNAYKNSPKPARHVREQLSSETGLDMRVVQVWFQNRRAKEKRLKKDAGRHRWGQFYKSVKRSRGSSKQEKESSAEDCGVSDSELSFREDQILSELGHTNRIYGNVGDVTGGQLMNGSFSMDGTGQSYQDLRDGSPYGIPQSPSSISSLPSHAPLLNGLDYTVDSNLGIIAHAGQGVSQTLRAMAGGPTSDISTGSSVGYPDFPTSPGSWLDEMDHPPF [A65V]
decreasing interaction strength | MMQSATVPAEGAVKGLPEMLGVPMQQIPQCAGCNQHILDKFILKVLDRHWHSSCLKAADAQMQLADRCFSRAGSVYCKEDFFKRFGTKCTACQQGIPPTQVVRKAQDFVYHLHCFACIICNRQLATGDEFYLMEDGRLVCKEDYETAKQNDDSEAGAKRPRTTITAKQLETLKNAYKNSPKPARHVREQLSSETGLDMRVVQVWFQNRRAKEKRLKKDAGRHRWGQFYKSVKRSRGSSKQEKESSAEDCGVSDSELSFREDQILSELGHTNRIYGNVGDVTGGQLMNGSFSMDGTGQSYQDLRDGSPYGIPQSPSSISSLPSHAPLLNGLDYTVDSNLGIIAHAGQGVSQTLRAMAGGPTSDISTGSSVGYPDFPTSPGSWLDEMDHPPF [C57A;C60A]
